For this experiment, the target named is mitoribosomal protein uL12m (human, UniProt P52815 37-198). The experiment can be described thus: cryo-EM structure.

B1: human mitochondrial elongation factor G2 (EF-G2mt) (natural protein)
chain: MLTNLRIFAMSHQTIPSVYINNICCYKIRASLKRLKPHVPLGRNCSSLPGLIGNDIKSLHSIINPPIAKIRNIGIMAHIDAGKTTTTERILYYSGYTRSLGDVDDGDTVTDFMAQERERGITIQSAAVTFDWKGYRVNLIDTPGHVDFTLEVERCLRVLDGAVAVFDASAGVEAQTLTVWRQADKHNIPRICFLNKMDKTGASFKYAVESIREKLKAKPLLLQLPIGEAKTFKGVVDVVMKEKLLWNCNSNDGKDFERKPLLEMNDPELLKETTEARNALIEQVADLDDEFADLVLEEFSENFDLLPAEKLQTAIHRVTLAQTAVPVLCGSALKNKGIQPLLDAVTMYLPSPEERNYEFLQWYKDDLCALAFKVLHDKQRGPLVFMRIYSGTIKPQLAIHNINGNCTERISRLLLPFADQHVEIPSLTAGNIALTVGLKHTATGDTIVSSKSSALAAARRAEREGEKKHRQNNEAERLLLAGVEIPEPVFFCTIEPPSLSKQPDLEHALKCLQREDPSLKVRLDPDSGQTVLCGMGELHIEIIHDRIKREYGLETYLGPLQVAYRETILNSVRATDTLDRTLGDKRHLVTVEVEARPIETSSVMPVIEFEYAESINEGLLKVSQEAIENGIHSACLQGPLLGSPIQDVAITLHSLTIHPGTSTTMISACVSRCVQKALKKADKQVLEPLMNLEVTVARDYLSPVLADLAQRRGNIQEIQTRQDNKVVIGFVPLAEIMGYSTVLRTLTSGSATFALELSTYQAMNPQDQNTLLNRRSGLT
As to B1, the binding result was “binds”.

The record behind these values is publication doi:10.1101/2020.12.20.423689 (bioRxiv, 2020).
